US8802681B2, “Pharmaceutical compositions with attenuated release of phenolic opioids” (Signature Therapeutics, Inc., priority 2008, dated 2014)

What was measured:
[1] = Oral administration of Compound 4 and Compound 101 to rats, hydromorphone in plasma; type: in vivo, rat; conditions: Compound 4 20 mg/kg, Compound 101 10 mg/kg
Protocol: Saline solutions of Compound 4 (which can be prepared as described in Example 13) and Compound 101 (prepared as described in Example 14) were dosed as indicated in Table 9.

[2] = Oral administration of Compound 3 and Compound 101 to rats, hydromorphone in plasma; type: in vivo, rat; conditions: Compound 3 20 mg/kg, Compound 101 10 mg/kg
Protocol: Saline solutions of Compound 3 (which can be prepared as described in Example 12) and Compound 101 (prepared as described in Example 14) were dosed as indicated in Table 8.

[3] = Oral administration of Compound 1 and SBTI in the presence of ovalbumin to rats, hydromorphone in plasma; type: in vivo, rat; conditions: Compound 1 20 mg/kg
Protocol: In an effort to understand the role of SBTI, ovalbumin was used as a non-trypsin inhibitor protein control. Albumin from chicken egg white (ovalbumin) (Catalog No. A7641, Grade VII, lyophilized powder, Sigma-Aldrich) was dissolved in saline.
At specified time points, blood samples were drawn, harvested for plasma via centrifugation at 5,400 rpm at 4° C. for 5 min, and 100 microliters (μl) plasma transferred from each sample into a fresh tube containing 1 μl of formic acid. The tubes were vortexed for 5-10 seconds, immediately placed in dry ice and then stored until analysis by HPLC/MS.

trypsin = target: T1, trypsin (Bos taurus, UniProt P00760); assay: Modified trypsin assay (in vitro IC50); type: biochemical; conditions: trypsin inhibition
T1 sequence (P00760 24-246): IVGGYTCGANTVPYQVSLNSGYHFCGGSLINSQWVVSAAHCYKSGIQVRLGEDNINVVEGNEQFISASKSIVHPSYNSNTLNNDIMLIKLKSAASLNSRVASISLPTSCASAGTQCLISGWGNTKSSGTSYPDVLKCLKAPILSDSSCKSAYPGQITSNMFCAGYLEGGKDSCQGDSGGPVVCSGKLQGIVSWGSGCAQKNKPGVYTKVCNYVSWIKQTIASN

[4] = Oral administration of Compound 1 and SBTI to rats, hydromorphone in blood; type: in vivo, rat
Protocol: At specified time points, blood samples were drawn, quenched into methanol, centrifuged at 14,000 rpm @ 4° C., and stored at −80° C. until analysis by high performance liquid chromatography/mass spectrometry (HPLC/MS).

[5] = Oral administration of Compound 3 and SBTI to rats, hydromorphone in plasma; type: in vivo, rat; conditions: Compound 3 20 mg/kg, SBTI 500 mg/kg
Excerpt: Dosing, sampling and analysis procedures were as described in Example 4.

[6] = Oral administration of Compound 2 and SBTI to rats, hydromorphone in plasma; type: in vivo, rat; conditions: Compound 2 20 mg/kg, SBTI 500 mg/kg
Protocol: When SBTI was dosed, it was administered 5 min prior to Compound 4. At specified time points, blood samples were drawn, processed and analyzed as described in Example 2.

[7] = Oral administration of Compound 4 and SBTI to rats, hydromorphone in plasma; type: in vivo, rat; conditions: Compound 4 20 mg/kg, SBTI 500 mg/kg
Protocol: Dosing, sampling and analysis procedures were as described in Example 4, except that Compound 4 without inhibitor was administered to 7 rats.

CCOC(=O)N1CCN(C(=O)[C@H](CCCNC(=N)N)NS(=O)(=O)c2ccc3ccccc3c2)CC1 [Compound 101, (S)-ethyl 4-(5-guanidino-2-(naphthalene-2-sulfonamido)pentanoyl)piperazine-1-carboxylate]
Effect of Compound 101 on Compound 4's release of hydromorphone [1]: attenuates Compound 4's ability to release hydromorphone, both with respect to suppressing Cmax and delaying Tmax
Effect of Compound 101 on Compound 3's release of hydromorphone [2]: attenuates Compound 3's ability to release hydromorphone, both with respect to suppressing Cmax and delaying Tmax

B1: ovalbumin: Albumin from chicken egg white, Catalog No. A7641, Grade VII, Sigma-Aldrich; non-trypsin inhibitor protein control (protein, UniProt P01012 2-386, looked up)
Ovalbumin: GSIGAASMEFCFDVFKELKVHHANENIFYCPIAIMSALAMVYLGAKDSTRTQINKVVRFDKLPGFGDSIEAQCGTSVNVHSSLRDILNQITKPNDVYSFSLASRLYAEERYPILPEYLQCVKELYRGGLEPINFQTAADQARELINSWVESQTNGIIRNVLQPSSVDSQTAMVLVNAIVFKGLWEKAFKDEDTQAMPFRVTEQESKPVQMMYQIGLFRVASMASEKMKILELPFASGTMSMLVLLPDEVSGLEQLESIINFEKLTEWTSSNVMEERKIKVYLPRMKMEEKYNLTSVLMAMGITDVFSSSANLSGISSAESLKISQAVHAAHAEINEAGREVVGSAEAGVDAASVSEEFRADHPFLFCIKHIATNAVLFFGRCVSP
Effect of ovalbumin on Compound 1's release of hydromorphone ([3]; OVA 20-1000 mg/kg): does not significantly affect Compound 1's ability to release hydromorphone

B2: SBTI: trypsin inhibitor from Glycine max (soybean), Catalog No. 93620, ~10,000 units per mg, Sigma-Aldrich (protein, UniProt P01070 25-205, looked up)
Trypsin inhibitor A: DFVLDNEGNPLENGGTYYILSDITAFGGIRAAPTGNERCPLTVVQSRNELDKGIGTIISSPYRIRFIAEGHPLSLKFDSFAVIMLCVGIPTEWSVVEDLPEGPAVKIGENKDAMDGWFRLERVSDDEFNNYKLVFCPQQAEDDKCGDIGISIDHDDGTRRLVVSKNKPLVVQFQKLDKESL
IC50 (trypsin): 270 nM
Effect of SBTI on Compound 1's release of hydromorphone ([3]; SBTI 500 mg/kg in the presence of 500 mg/kg ovalbumin): suppresses Cmax and delays Tmax
Effect of SBTI on Compound 1's release of hydromorphone ([4]; Compound 1 20 mg/kg, SBTI 10-1000 mg/kg): attenuates Compound 1's ability to release hydromorphone in a dose-dependent manner
Attenuation of hydromorphone release from Compound 1 ([4]; at higher SBTI concentrations): approximately 100%
Effect of SBTI on Compound 3's release of hydromorphone [5]: attenuates Compound 3's ability to release hydromorphone, both with respect to suppressing Cmax and delaying Tmax
Effect of SBTI on Compound 2's release of hydromorphone [6]: attenuates Compound 2's ability to release hydromorphone, both with respect to suppressing Cmax and delaying Tmax
Effect of SBTI on Compound 4's release of hydromorphone [7]: attenuates Compound 4's ability to release hydromorphone, at least with respect to delaying Tmax
